Test results reported in publication PMC4872098.

Key:
Rbfox RRM (109-208) [1] = molecular target: T1, Rbfox RRM (109-208) (Homo sapiens, UniProt Q9NWB1 109-208); experiment: EMSA
T1 sequence: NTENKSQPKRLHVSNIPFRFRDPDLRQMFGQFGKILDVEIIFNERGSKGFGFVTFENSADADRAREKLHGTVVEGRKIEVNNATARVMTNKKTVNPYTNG

Rbfox RRM (109-208) [2] = molecular target: T1, Rbfox RRM (109-208); experiment: NMR
Rbfox1 RRM (109-225) = molecular target: T2, Rbfox1 RRM (109-225) (Homo sapiens, UniProt Q9NWB1 109-225); experiment: NMR
T2 sequence: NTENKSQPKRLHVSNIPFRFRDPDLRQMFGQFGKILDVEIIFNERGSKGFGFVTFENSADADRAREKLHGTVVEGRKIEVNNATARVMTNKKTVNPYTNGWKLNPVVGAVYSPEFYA

B1: pre-miR-20b full-length (structured_RNA)
RNA: AGUACCAAAGUGCUCAUAGUGCAGGUAGUUUUGGCAUGACUCUACUGUAGUAUGGGCACUUCCAGUACU
B1 was tested, and the Kd (Rbfox RRM (109-208) [1]) was about 50 nM.

GCUCAUAGUGCAGGUAGUUUUGGCAUGACUCUACUGUAGUAUGGGC (structured_RNA) [pre-miR-20b 46-nt (G7-C52)]: binds (Rbfox RRM (109-208) [2]).

GCUCAUAGUGCAGGUAGUUUUGGCAUGACUCUACUGUAGUAUGGGC (structured_RNA, 4-thiouridine at U43 carrying spin label) [pre-miR-20b 46-nt, 4-thio-U43 spin-labeled]: binds (Rbfox1 RRM (109-225)).
